For five molecules, color development intensity results are on record in US20210332109A1.

Assay [1] has as its target the antibody (of the immunochromatographic analysis device used in Test Example 8). The assay can be described thus: competitive inhibition in the immunochromatographic sandwich on VZV gE recombinant protein, P1 added; row 5 ng/mL.
Assay [2] has the same target. The assay can be described thus: competitive inhibition in the immunochromatographic sandwich on VZV gE recombinant protein, P1 added; row 0.5 ng/mL.
Assay [3] has the same target. The assay can be described thus: competitive inhibition in the immunochromatographic sandwich on VZV gE recombinant protein, P3 added; row 0.5 ng/mL.
For assay [4] the target is unchanged. The assay can be described thus: competitive inhibition in the immunochromatographic sandwich on VZV gE recombinant protein, P3 added; row 5 ng/mL.
For assay [5] the target is unchanged. The assay can be described thus: competitive inhibition in the immunochromatographic sandwich on VZV gE recombinant protein, P4 added; row 5 ng/mL.
Assay [6] shares this target. The assay can be described thus: competitive inhibition in the immunochromatographic sandwich on VZV gE recombinant protein, P4 added; row 0.5 ng/mL.
For assay [7], the target named is VZV gE recombinant protein (CalBioreagents, Inc.) (varicella-zoster virus) (UniProt P09259). The assay can be described thus: immunochromatographic sandwich; row antibody gold-labelled, Antibody 2 on the detection line.
Assay [8] shares this target. The assay can be described thus: immunochromatographic sandwich; row antibody gold-labelled, Antibody 5 on the detection line.
Assay [9] shares this target. The assay can be described thus: immunochromatographic sandwich; row antibody gold-labelled, Antibody 4 on the detection line.
Assay [10] shares this target. The assay can be described thus: immunochromatographic sandwich; row antibody gold-labelled, Antibody 9 on the detection line.
Assay [11] has the same target. The assay can be described thus: immunochromatographic sandwich; row antibody gold-labelled, Antibody 18 on the detection line.
Assay [12] has the same target. The assay can be described thus: immunochromatographic sandwich; row antibody gold-labelled, Antibody 3 on the detection line.
Assay [13] has as its target the antibody (of the immunochromatographic analysis device used in Test Example 8). The assay can be described thus: competitive inhibition in the immunochromatographic sandwich on VZV gE recombinant protein, P2 added; row 5 ng/mL.
Assay [14] has the same target. The assay can be described thus: competitive inhibition in the immunochromatographic sandwich on VZV gE recombinant protein, P2 added; row 0.5 ng/mL.

Sequence of VZV gE recombinant protein (CalBioreagents, Inc.) (varicella-zoster virus) (P09259 31-538 limits assumed): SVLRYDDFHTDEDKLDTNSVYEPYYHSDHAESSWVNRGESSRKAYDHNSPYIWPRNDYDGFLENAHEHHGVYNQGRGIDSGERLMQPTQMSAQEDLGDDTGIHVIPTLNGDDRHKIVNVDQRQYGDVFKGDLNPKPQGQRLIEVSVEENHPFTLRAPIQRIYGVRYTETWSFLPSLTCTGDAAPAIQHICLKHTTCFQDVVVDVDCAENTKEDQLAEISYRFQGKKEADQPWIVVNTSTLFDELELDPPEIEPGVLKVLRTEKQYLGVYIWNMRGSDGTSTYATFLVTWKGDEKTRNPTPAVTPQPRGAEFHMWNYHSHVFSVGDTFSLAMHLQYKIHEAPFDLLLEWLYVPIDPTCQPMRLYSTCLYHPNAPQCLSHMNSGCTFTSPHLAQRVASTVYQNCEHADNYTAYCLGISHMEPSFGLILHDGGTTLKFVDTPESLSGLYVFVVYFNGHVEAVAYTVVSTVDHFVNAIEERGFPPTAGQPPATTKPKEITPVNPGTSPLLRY

B1: Peptide 1 (peptide fragment composed of the amino acid sequence at positions 48 to 67 in the amino acid sequence of SEQ ID NO: 1) (peptide)
peptide: NSVYEPYYHSDHAESSWVNR
Take B1: the color development intensity in assay [1] was 726 mAbs; in [2], 136 mAbs.

B2: Peptide 3 (peptide fragment composed of the amino acid sequence at positions 62 to 81 in the amino acid sequence of SEQ ID NO: 1) (peptide)
peptide: SSWVNRGESSRKAYDHNSPY
On to B2, for which the color development intensity amounted to 128 mAbs in assay [3] and 677 mAbs in [4].

B3: Peptide 4 (peptide fragment composed of the amino acid sequence at positions 69 to 88 in the amino acid sequence of SEQ ID NO: 1) (peptide)
peptide: ESSRKAYDHNSPYIWPRNDY
On to B3, for which the color development intensity in assay [5] turned out to be 596 mAbs; in [6] it was 149 mAbs.

B4: Antibody 9 (antibody, V domains shown)
VH: EVQLEESGPELVKPGASVKIPCKASGYTFTDYNMDWVKQNHGKSLEWIGEINPENGGTIYNQTFKGKATLTVDKSSSTAYMELRSLTSEDTAVYYCARSPWFTYWGQGTLVTVSA
VL: DIVLTQTTASLSMAIGEIVTIRCITSTDIGDDMNWYQQKPGEPPKFLISEGNTLRPGVPSRFSSSGYGTDFVFTVENILSEDVADYYCLQSDNLPHVRLGDKVGNK
As for B4, the color development intensity in assay [7] was found to be 39; in assay [8] it was 52; in assay [9], 5; in assay [10] it was 29; in assay [11] it was 218; in assay [12], 53.

B5: Peptide 2 (peptide fragment composed of the amino acid sequence at positions 54 to 72 in the amino acid sequence of SEQ ID NO: 1) (peptide)
peptide: YYHSDHAESSWVNRGESSR
In the case of B5, the color development intensity in assay [13] was found to be 697 mAbs; in assay [14], 127 mAbs.
